Source: patent US10022453B2 (BAYER PHARMA AKTIENGESELLSCHAFT, priority 2013, dated 2018)
Numbering of substitutions follows the chain as printed. Blank lines part the entries; values can stand above or below the molecule they belong to.

Tests used:
[1] = test system: Caco-2 cells; test: Cell permeability, flux assay using Caco-2 cells
[2] = target: T1, recombinant human TWEAKR protein (TPP-2305) (Homo sapiens, UniProt Q9NP84); details: published data (WO2009/020933, WO2009/140177, literature); cited from earlier work
T1 construct: purchased Fitzgerald Inc 30R-AT080

[3] = target: T1, recombinant human TWEAKR protein (TPP-2305); test: Binding affinities by Biacore analysis; details: monovalent
Method: Determination of Binding Affinities by Biacore Analysis:
Binding affinities of anti-TWEAKR antibodies were examined using surface plasmon resonance analysis on a Biacore T100 instrument (GE Healthcare Biacore, Inc.). The antibodies were immobilized on a CM5 sensor chip using an indirect capture reagent, anti-human IgG(Fc). […] Anti-TWEAKR antibodies were injected at a concentration of 10 μg/ml at […] for 10 sec.
Sensorgrams were generated after in-line reference cell correction, followed by subtraction of the buffer sample. The dissociation constant (KD) was calculated based on the ratio of association (kon) and dissociation (koff) constants, obtained by fitting sensorgrams using a 1:1 first order binding model.

[4] = target: T2, TWEAKR-Fc mutein M50A (Homo sapiens, UniProt Q9NP84, M50A); test: ELISA, effect of TWEAKR-Fc muteins on antibody binding; details: 62 ng/ml mutein coated, biotinylated IgG from 100 nM
T2 construct: the full-length ectodomain (amino acids 28-80); made in house
Method: (§1) Effect of TWEAKR-Fc Muteins on the Antibody Affinity
(§2) To this end, the full-length ectodomain (amino acids 28-80) having the individual amino acid substitutions below were expressed and purified as Fc fusion proteins: T33Q; S40R; W42A; M50A; R56P; H60K; L65Q.
(§3) Detection was carried out using streptavidin-HRP and Amplex Red.
(§4) The dose-reaction data were fitted and the IC50s were determined.

[5] = target: T3, TWEAKR-Fc WT (TPP-599) (Homo sapiens, UniProt Q9NP84); test: as above; details: 62 ng/ml TWEAKR-Fc coated, biotinylated IgG from 100 nM
T3 construct: hTNFRSF12 amino acids a28-80-hIgG1-Fc
Method: as §1, §2, §3, §4

[6] = target: T4, TWEAKR-Fc mutein H60K (Homo sapiens, UniProt Q9NP84, H60K); test: as above; details: 62 ng/ml mutein coated, biotinylated IgG from 100 nM
T4 construct: the full-length ectodomain (amino acids 28-80); made in house
Method: as §1, §2, §3, §4

[7] = target: T5, TWEAKR-Fc mutein W42A (Homo sapiens, UniProt Q9NP84, W42A); test: as above; details: 62 ng/ml mutein coated, biotinylated IgG from 100 nM
T5 construct: the full-length ectodomain (amino acids 28-80); made in house
Method: as §1, §2, §3, §4

[8] = target: T6, TWEAKR-Fc mutein R56P (Homo sapiens, UniProt Q9NP84, R56P); test: as above; details: 62 ng/ml mutein coated, biotinylated IgG from 100 nM
T6 construct: the full-length ectodomain (amino acids 28-80); made in house
Method: as §1, §2, §3, §4

[9] = target: T7, TWEAKR-Fc mutein T33Q (Homo sapiens, UniProt Q9NP84, T33Q); test: as above; details: 62 ng/ml mutein coated, biotinylated IgG from 100 nM
T7 construct: the full-length ectodomain (amino acids 28-80); made in house
Method: as §1, §2, §3, §4

[10] = target: T8, TWEAKR-Fc mutein S40R (Homo sapiens, UniProt Q9NP84, S40R); test: as above; details: 62 ng/ml mutein coated, biotinylated IgG from 100 nM
T8 construct: the full-length ectodomain (amino acids 28-80); made in house
Method: as §1, §2, §3, §4

[11] = target: T9, TWEAKR-Fc mutein L65Q (Homo sapiens, UniProt Q9NP84, L65Q); test: as above; details: 62 ng/ml mutein coated, biotinylated IgG from 100 nM
T9 construct: the full-length ectodomain (amino acids 28-80); made in house
Method: as §1, §2, §3, §4

Molecule: CC(C)(C)[C@H](c1nn(-c2cc(F)ccc2F)cc1Cc1ccccc1)N(CC[C@H](N)C(=O)NCCC(=O)NCCN1C(=O)CC(SC[C@H](N)C(=O)O)C1=O)C(=O)CO.O=C(O)C(F)(F)F (stereo partly shown) [Example 92]
Papp (B-A) ([1]; Caco-2, 2 hours): 0.4 ×10⁻⁶ cm/s
Efflux ratio ([1]; Papp (B-A) to Papp (A-B), Caco-2): 3

B3: 136.1: "agonistic antibodies already described [e.g. PDL-192(TPP-1104), P4A8(TPP-1324), 136.1(TPP-2194)]" (protein)
light: DIVLTQSPASLTVSLGQRATISCRASQSVSTSSYSYMQWYQQRPGQPPKLLIKYATNLDSGVPARFSGSGSGTDFTLNIHPVEEEDAATYYCQHSWEIPYTFGGGTKLEIKRADAAPTVSIFPPSSEQLTSGGASVVCFLNNFYPKDINVKWKIDGSERQNGVLNSWTDQDSKDSTYSMSSTLTLTKDEYERHNSYTCEATHKTSTSPIVKSFNRNEC
heavy: EVKLEESGGGLVQPGGSMKLSCVASGFTFNNYWMSWVRQSPEKGLEWLAEIRLKSDNYATHYAESVKGKFTISRDDSKSRLYLQMNNLRAENTGIYYCTGGFADYFDYWGQGTTLTVSSAKTTAPSVYPLAPVCGDTTGSSVTLGCLVKGYFPEPVTLTWNSGSLSSGVHTFPAVLQSDLYTLSSSVTVTSSTWPSQSITCNVAHPASSTKVDKKIEPRGPTIKPCPPCKCPAPNLLGGPSVFIFPPKIKDVLMISLSPIVTCVVVDVSEDDPDVQISWFVNNVEVHTAQTQTHREDYNSTLRVVSALPIQHQDWMSGKEFKCKVNNKDLPAPIERTISKPKGSVRAPQVYVLPPPEEEMTKKQVTLTCMVTDFMPEDIYVEWTNNGKTELNYKNTEPVLDSDGSYFMYSKLRVEKKNWVERNSYSCSVVHEGLHNHHTTKSFSRTPG
modifications: Mus Musculus
Kd [2]: 700 pM

Now from value to molecule, other results behind:

ka [3]: 1.64e+07 M⁻¹ s⁻¹
kd [3]: 0.0285 s⁻¹
IC50 [4]: 1 to 150 pM
IC50 [5]: 1 to 150 pM
IC50 [6]: 1 to 150 pM
IC50 [7]: > 50000 pM
IC50 [8]: > 50000 pM
IC50 [9]: 1 to 150 pM
IC50 [10]: 1 to 150 pM
IC50 [11]: 1 to 150 pM
B1: 18.3.3(TPP-2193): comparative anti-TWEAKR antibody; variable domains from WO2009/020933, constant region added, "resulting in full-length IgGs" (protein)
light: B3 light with T12A, R24K, S33T, P47S, T56S, N57K, A87T, I98L, K107R
heavy: EVKLGESGGGLVQPGGSMKLSCVASGFPFTKYWMNWVRQSPEKGLEWVAEIRLKSDNYATHYAESAKGRFTISRDDSRSSVYLQMNNLRAEDTAIYYCSPTYADTMDYWGQGTSVTVSSAKTTAPSVYPLAPVCGDTTGSSVTLGCLVKGYFPEPVTLTWNSGSLSSGVHTFPAVLQSDLYTLSSSVTVTSSTWPSQSITCNVAHPASSTKVDKKIEPRGPTIKPCPPCKCPAPNLLGGPSVFIFPPKIKDVLMISLSPIVTCVVVDVSEDDPDVQISWFVNNVEVHTAQTQTHREDYNSTLRVVSALPIQHQDWMSGKEFKCKVNNKDLPAPIERTISKPKGSVRAPQVYVLPPPEEEMTKKQVTLTCMVTDFMPEDIYVEWTNNGKTELNYKNTEPVLDSDGSYFMYSKLRVEKKNWVERNSYSCSVVHEGLHNHHTTKSFSRTPG
modifications: Mus Musculus
Kd [2]: 200 pM

ka [3]: 3.84e+07 M⁻¹ s⁻¹
kd [3]: 0.0324 s⁻¹
IC50 [4]: 1 to 150 pM
IC50 [5]: 1 to 150 pM
IC50 [6]: 1 to 150 pM
IC50 [7]: > 50000 pM
IC50 [8]: > 50000 pM
IC50 [9]: 1 to 150 pM
IC50 [10]: 1 to 150 pM
IC50 [11]: 1 to 150 pM
B2: 136.1(TPP-2194): comparative anti-TWEAKR antibody; variable domains from WO2009/020933, constant region added, "resulting in full-length IgGs" (protein)
light: B3 light
heavy: B3 heavy
modifications: Mus Musculus

ka [3]: 2.31e+06 M⁻¹ s⁻¹
kd [3]: 0.00122 s⁻¹
IC50 [4]: 1 to 150 pM
IC50 [5]: 1 to 150 pM
IC50 [6]: 1 to 150 pM
IC50 [7]: > 50000 pM
IC50 [8]: 1 to 150 pM
IC50 [9]: 1 to 150 pM
IC50 [10]: 1 to 150 pM
IC50 [11]: 1 to 150 pM
B4: P3G5(TPP-2195): comparative anti-TWEAKR antibody; variable domains from WO2009/140177, constant region added, "resulting in full-length IgGs" (protein)
light: DIVLTQSPASLAVSLGQRATISCRANKSVSTSSYSYMHWYQQKPGQPPKLLIKYASNLESGVPARFSGSGSGTDFILNIHPVEEEDAATYYCQHSRELPFTFGSGTKLEIKRADAAPTVSIFPPSSEQLTSGGASVVCFLNNFYPKDINVKWKIDGSERQNGVLNSWTDQDSKDSTYSMSSTLTLTKDEYERHNSYTCEATHKTSTSPIVKSFNRNEC
heavy: QVQLQQSGPEVVRPGVSVKISCKGSGYTFTDYGIHWVKQSHAKSLEWIGVISTYNGYTNYNQKFKGKATMTVDKSSSTAYMELARLTSEDSAIYYCARAYYGNLYYAMDYWGQGTSVTVSSAKTTAPSVYPLAPVCGDTTGSSVTLGCLVKGYFPEPVTLTWNSGSLSSGVHTFPAVLQSDLYTLSSSVTVTSSTWPSQSITCNVAHPASSTKVDKKIEPRGPTIKPCPPCKCPAPNLLGGPSVFIFPPKIKDVLMISLSPIVTCVVVDVSEDDPDVQISWFVNNVEVHTAQTQTHREDYNSTLRVVSALPIQHQDWMSGKEFKCKVNNKDLPAPIERTISKPKGSVRAPQVYVLPPPEEEMTKKQVTLTCMVTDFMPEDIYVEWTNNGKTELNYKNTEPVLDSDGSYFMYSKLRVEKKNWVERNSYSCSVVHEGLHNHHTTKSFSRTPG
modifications: Mus Musculus
